The record followed here is US20190119389A1 (POTENZA THERAPEUTICS, published 2019).

Broadly, the IC50 is the concentration that gives 50% inhibition. As a reminder, the Kd is the constant that tells how readily two partners part at equilibrium.

The target of assay [1] is T1, monomeric mutant NRP1 b1 D320A (human, UniProt O14786 273-427, limits assumed).
T1 construct: Single point mutant of the human NRP1 b1 domain
T1 chain: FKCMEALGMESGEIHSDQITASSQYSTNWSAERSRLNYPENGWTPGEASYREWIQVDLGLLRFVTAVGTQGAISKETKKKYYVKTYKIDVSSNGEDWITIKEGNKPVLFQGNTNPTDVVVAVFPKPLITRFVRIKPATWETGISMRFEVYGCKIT
In words: BLI Octet, MAB12 captured on anti-human Fc sensors, monomeric mutant NRP1 b1. For orientation: Biolayer interferometry detects binding as a change in optical thickness at a sensor tip.

The target in assay [2] is T2, monomeric mutant NRP1 b1 K352G (human, UniProt O14786 273-427, limits assumed).
T2 construct: Single point mutant of the human NRP1 b1 domain
T2 chain: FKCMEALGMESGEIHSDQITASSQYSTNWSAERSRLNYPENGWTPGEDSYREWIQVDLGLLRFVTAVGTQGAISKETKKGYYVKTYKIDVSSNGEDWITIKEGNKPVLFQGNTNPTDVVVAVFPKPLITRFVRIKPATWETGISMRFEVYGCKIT
The description is as above.

In assay [3] the target is T3, monomeric mutant NRP1 b1 E412H (human, UniProt O14786 273-427, limits assumed).
T3 construct: Single point mutant of the human NRP1 b1 domain
T3 chain: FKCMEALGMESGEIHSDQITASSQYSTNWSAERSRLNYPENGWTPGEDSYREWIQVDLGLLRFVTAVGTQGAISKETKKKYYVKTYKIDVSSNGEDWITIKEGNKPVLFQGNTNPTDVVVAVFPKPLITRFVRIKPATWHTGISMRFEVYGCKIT
The description is as above.

The target in assay [4] is T4, monomeric mutant NRP1 b1 T349A (human, UniProt O14786 273-427, limits assumed).
T4 construct: Single point mutant of the human NRP1 b1 domain
T4 chain: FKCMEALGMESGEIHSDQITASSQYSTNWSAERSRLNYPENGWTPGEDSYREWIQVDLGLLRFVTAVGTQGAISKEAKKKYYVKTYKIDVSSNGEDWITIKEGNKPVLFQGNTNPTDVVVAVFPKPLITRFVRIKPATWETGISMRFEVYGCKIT
Described as above.

The target in assay [5] is T5, monomeric mutant NRP1 b1 T413A (human, UniProt O14786 273-427).
T5 chain: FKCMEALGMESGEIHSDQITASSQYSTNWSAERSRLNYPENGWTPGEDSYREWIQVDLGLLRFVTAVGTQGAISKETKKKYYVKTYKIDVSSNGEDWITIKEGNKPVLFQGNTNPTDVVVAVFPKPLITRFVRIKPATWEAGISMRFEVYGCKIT
The description is as above.

In assay [6] the target is T6, monomeric mutant NRP1 b1 Y354A (human, UniProt O14786 273-427, limits assumed).
T6 construct: Single point mutant of the human NRP1 b1 domain
T6 chain: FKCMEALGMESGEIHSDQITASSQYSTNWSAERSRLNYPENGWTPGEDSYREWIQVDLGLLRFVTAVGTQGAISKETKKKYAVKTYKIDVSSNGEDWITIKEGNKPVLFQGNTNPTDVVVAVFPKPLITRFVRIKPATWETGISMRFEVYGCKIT
The assay is described as above.

The target in assay [7] is T7, monomeric mutant NRP1 b1 P317A (human, UniProt O14786 273-427, limits assumed).
T7 construct: Single point mutant of the human NRP1 b1 domain
T7 chain: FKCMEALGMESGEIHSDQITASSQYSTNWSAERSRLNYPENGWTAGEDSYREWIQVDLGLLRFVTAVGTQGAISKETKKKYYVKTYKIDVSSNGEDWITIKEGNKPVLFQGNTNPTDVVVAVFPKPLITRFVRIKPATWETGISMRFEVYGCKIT
The assay is described as above.

For assay [8], the target named is T8, monomeric mutant NRP1 b1 Y353A (human, UniProt O14786 273-427, limits assumed).
T8 construct: Single point mutant of the human NRP1 b1 domain
T8 chain: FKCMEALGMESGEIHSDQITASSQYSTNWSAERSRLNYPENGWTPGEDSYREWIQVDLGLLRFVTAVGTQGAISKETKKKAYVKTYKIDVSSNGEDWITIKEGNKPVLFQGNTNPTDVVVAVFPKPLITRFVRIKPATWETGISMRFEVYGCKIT
Described as above.

For assay [9], the target named is T9, monomeric mutant NRP1 b1 K351N (human, UniProt O14786 273-427, limits assumed).
T9 construct: Single point mutant of the human NRP1 b1 domain
T9 chain: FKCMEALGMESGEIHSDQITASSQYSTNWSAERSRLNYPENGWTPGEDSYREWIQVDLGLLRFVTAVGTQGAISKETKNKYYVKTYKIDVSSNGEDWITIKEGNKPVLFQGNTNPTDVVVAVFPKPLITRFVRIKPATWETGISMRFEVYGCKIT
Described as above.

Assay [10] deals with T10, recombinant human NRP-1 (human, UniProt O14786 22-856, limits assumed).
T10 construct: also called biotinylated human NRP-1
T10 sequence (O14786 22-856 V179A limits assumed): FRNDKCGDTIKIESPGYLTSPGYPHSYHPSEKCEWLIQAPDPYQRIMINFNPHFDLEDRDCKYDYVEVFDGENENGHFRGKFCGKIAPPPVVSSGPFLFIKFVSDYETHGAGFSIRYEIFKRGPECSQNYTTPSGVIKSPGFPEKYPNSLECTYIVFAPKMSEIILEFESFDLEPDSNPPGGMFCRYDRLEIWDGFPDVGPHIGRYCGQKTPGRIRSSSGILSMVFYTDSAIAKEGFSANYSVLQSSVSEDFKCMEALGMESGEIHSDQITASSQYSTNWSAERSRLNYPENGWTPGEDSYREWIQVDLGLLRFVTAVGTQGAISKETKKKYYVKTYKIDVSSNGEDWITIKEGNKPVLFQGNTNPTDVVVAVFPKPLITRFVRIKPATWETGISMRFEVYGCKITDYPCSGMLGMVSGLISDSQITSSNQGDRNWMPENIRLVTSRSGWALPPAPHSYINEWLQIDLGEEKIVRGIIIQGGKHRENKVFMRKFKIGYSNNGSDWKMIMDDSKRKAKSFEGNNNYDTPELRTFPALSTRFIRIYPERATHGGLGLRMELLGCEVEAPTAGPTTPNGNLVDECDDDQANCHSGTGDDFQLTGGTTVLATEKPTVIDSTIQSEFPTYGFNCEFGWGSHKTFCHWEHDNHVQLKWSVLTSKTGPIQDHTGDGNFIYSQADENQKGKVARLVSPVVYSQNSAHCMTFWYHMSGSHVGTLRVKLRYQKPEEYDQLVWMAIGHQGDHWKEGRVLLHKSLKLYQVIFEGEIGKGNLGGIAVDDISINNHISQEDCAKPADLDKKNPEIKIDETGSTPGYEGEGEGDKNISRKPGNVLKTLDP
The assay can be described thus: blocking ELISA: SEMA3A coated, biotinylated human NRP-1 preincubated with IgG1 antibody; competitor SEMA3A. For orientation: An ELISA detects its analyte on a solid surface through an enzyme-linked reagent.

For assay [11], the target named is T10, recombinant human NRP-1. In words: blocking ELISA: human NRP-1 coated, VEGFA added with IgG1 antibody; competitor VEGFA.
A further assay has as its target T11, Cyno NRP-1 His (cynomolgus monkey, UniProt O14786 22-856 (human entry), limits assumed).
T11 construct: Recombinant monomeric protein; also called cynomolgus monkey NRP-1-His; cNRP-1; not shown: His tag
T11 chain: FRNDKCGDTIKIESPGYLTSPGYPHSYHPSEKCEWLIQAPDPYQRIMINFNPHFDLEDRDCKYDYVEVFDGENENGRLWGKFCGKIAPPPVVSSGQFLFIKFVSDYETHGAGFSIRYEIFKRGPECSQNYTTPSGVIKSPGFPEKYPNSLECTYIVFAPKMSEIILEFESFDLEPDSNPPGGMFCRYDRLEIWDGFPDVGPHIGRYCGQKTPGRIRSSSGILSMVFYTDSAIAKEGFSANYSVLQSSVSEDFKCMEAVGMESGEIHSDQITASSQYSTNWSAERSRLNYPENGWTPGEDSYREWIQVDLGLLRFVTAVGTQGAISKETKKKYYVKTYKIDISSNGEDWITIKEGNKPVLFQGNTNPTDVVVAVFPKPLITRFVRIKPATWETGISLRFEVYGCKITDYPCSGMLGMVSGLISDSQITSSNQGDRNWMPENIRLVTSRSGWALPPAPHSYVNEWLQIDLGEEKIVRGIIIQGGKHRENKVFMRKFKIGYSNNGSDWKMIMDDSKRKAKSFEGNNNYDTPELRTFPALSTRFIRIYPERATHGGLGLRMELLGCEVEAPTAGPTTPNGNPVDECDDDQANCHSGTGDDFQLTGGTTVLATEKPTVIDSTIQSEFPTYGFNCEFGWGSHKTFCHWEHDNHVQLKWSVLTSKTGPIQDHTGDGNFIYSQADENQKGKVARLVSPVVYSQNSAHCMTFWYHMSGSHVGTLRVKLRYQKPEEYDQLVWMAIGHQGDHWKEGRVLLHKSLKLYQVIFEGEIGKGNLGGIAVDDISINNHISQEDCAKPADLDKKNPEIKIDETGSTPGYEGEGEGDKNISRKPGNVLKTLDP
In words: BLI ForteBio, IgG1 N297A on AHQ sensor, 100 nM monomeric antigen, 1:1 fit.

The target of another assay is T12, Mouse NRP-1 His (mouse, UniProt P97333 22-856).
T12 construct: Recombinant monomeric protein; also called mNRP-1; not shown: His tag
T12 sequence (P97333 22-856 limits assumed): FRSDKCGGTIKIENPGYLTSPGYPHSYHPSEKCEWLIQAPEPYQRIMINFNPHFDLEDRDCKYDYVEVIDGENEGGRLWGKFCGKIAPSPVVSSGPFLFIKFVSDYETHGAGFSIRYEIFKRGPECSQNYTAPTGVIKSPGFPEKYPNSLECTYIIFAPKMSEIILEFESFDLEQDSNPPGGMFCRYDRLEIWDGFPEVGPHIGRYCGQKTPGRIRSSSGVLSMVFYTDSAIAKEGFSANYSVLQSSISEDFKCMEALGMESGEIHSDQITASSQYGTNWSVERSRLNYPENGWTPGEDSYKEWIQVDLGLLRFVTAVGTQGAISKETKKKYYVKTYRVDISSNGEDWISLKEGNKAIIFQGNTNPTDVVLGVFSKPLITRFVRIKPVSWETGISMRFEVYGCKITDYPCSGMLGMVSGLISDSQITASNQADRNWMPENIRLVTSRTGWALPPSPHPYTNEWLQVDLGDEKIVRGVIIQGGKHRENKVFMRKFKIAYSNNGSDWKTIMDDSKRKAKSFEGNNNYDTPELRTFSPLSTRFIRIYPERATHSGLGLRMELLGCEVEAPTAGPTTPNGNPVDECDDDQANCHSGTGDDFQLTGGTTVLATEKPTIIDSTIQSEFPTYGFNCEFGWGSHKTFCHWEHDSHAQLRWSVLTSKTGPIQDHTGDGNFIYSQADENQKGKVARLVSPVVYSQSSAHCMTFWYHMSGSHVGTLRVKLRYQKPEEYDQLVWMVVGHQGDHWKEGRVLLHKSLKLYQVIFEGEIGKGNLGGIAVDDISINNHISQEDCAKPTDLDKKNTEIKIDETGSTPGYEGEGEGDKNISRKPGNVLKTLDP
Described as above.

The target in the next assay is T13, Human NRP-1 His (human, UniProt O14786 22-856).
T13 construct: Recombinant monomeric protein; Biotinylated in the MSD-SET assay; also called hNRP-1; not shown: His tag
T13 sequence (O14786 22-856 V179A limits assumed): as the sequence (O14786 22-856 V179A limits assumed) above
Described as above.

B1: MAB12 (antibody, V domains shown)
VH: EVQLLESGGGLVQPGGSLRLSCAASGFTFSSVAMVWVRQAPGKGLEWVSAISGSGGATYYADSVEGRFTISRDNSKNTLYLQMNSLRAEDTAVYYCAKDPGYDSSRYYYSNYGMDVWGQGTTVTVSS
VL: DIQMTQSPSSLSASVGDRVTITCRASQSISSYLNWYQQKPGKAPKLLIYGASSLQSGVPSRFSGSGSGTDFTLTISSLQPEDFATYYCQQTYSLYTFGGGTKVEIK
Take B1: the binding result in assay [1] is given as “binds”; in assay [2], “binds”; in assay [3], “no binding”; in [4], “binds”; in assay [5], “binds”; in [6], “binds”. Also, the binding result is “binds” in assay [7], “binds” in assay [8] and “no binding” in assay [9]. The IC50 in the assay with recombinant human NRP-1 [10] came out at 0.8 nM; with recombinant human NRP-1 [11], 6 nM. The dissociation constant (Kd) in the assay with Cyno NRP-1 His is 0.469 nM; with Mouse NRP-1 His, 0.44 nM; in the assay with Human NRP-1 His it was 0.481 nM.
